Target: Deg2 protease (Arabidopsis thaliana), mature Deg2 (Arabidopsis thaliana)
Test: SEC + other: dynamic light scattering

stoichiometry N: 6
Substance: Deg2 protease (Arabidopsis thaliana), mature Deg2 (enzyme)

Source: paper PMC3481350
